The values below come from article PMC3871700, “Unusual N-Prenylation in Diazepinomicin Biosynthesis: The Farnesylation of a Benzodiazepine Substrate Is Catalyzed by a New Member of the ABBA Prenyltransferase Superfamily” (PLoS ONE, 2013).

What all share (assay): purified protein
Substrate in data set [1]: O=C1Nc2ccccc2Nc2ccccc21
The format is biochemical, Micromonospora sp. RV115. To be noted: FPP as co-substrate; Mg2+ stimulates but is not required.

Substrate in data set [2]: Oc1ccc2c(O)cccc2c1
It is filed as biochemical, Micromonospora sp. RV115. To be noted: FPP as co-substrate; Mg2+ stimulates but is not required.

Substrate in data set [3]: CC(C)=CCC/C(C)=C/COP(=O)(O)OP(=O)(O)O
Conditions: […],6-DHN as co-substrate; Mg2+ stimulates but is not required.

Substrate in data set [4]: CC(C)=CCC/C(C)=C/CC/C(C)=C/CO[P@@](=O)(O)OP(=O)(O)O
To be noted: […],6-DHN as co-substrate; Mg2+ stimulates but is not required.

Substrate in data set [5]: Oc1ccc2c(O)cccc2c1
The format is biochemical, Streptomyces griseoflavus. To be noted: FPP as co-substrate; Mg2+ stimulates but is not required.

B1: DzmP (Micromonospora sp. RV115) (protein)
chain: MSGTPEVAELYSTIEESARQLDVPCSRDRVWPVLSAYGDAFAHPEAVVAFRVATALRHAGELDCRFRTHPDDRDPYASAIARGLTPRTDHPIGGLLAEVHRRCPVESHGIDFGVVGGFKKIYAAFAPDELQVASVLAGIPAMPRSLAANAGFFTRHGLDDRVGVLGFDYPARTVNVYFNDVPRECFEPETIRSTLRRTGMAEPSEQMLRLGAGAFGLYVTLGWDSPEIERICYAAATTDLTTLPVPVEPEIEKFVKSVPYGGGDRKFVYGVALTPKGEYYKLESHYKWKPGAVNFI
notes: His8-tagged DzmP (296 amino acids)
By Km is commonly meant the concentration of substrate that gives half-maximal velocity. Consider B1, for which the Km in the data set “purified protein [1]” is listed as 133 ± 30 µM; in “purified protein [3]”, 4.9 ± 0.9 µM; in “purified protein [4]”, 20 µM. Further, in the data set “purified protein [2]”, the K0.5 is recorded as 18 ± 1 µM.

B2: Ssrg_00986 (Streptomyces griseoflavus Tu4000) (protein)
chain: MSGTSEADEICSAVTETAGRLGIAFSRDKVWPILSAYGDAFAHAMPLAFRMATGPQHAGDVDCRFITHPKDRNPYPLAVSKGLTPKTSHPVGTLLSEIEERFPIDGYGIDFGVVNGFTKVYAGFAPQDLQNASKLVEIPAMPRSLAGNFDFFVRHGLDDKVAFVAVDYLHRTVNVYFNDVPAACFESDGIRRMLRDLGLPGPSDRMLGIGGQAFGLYITLNWDSPAIERFCFGVTTTDLSSLPVSIEPQLEKFAHCVPYGGADRKFVYGVAAAPEGEYYKLETHYKWNPGTVAFI
notes: His8-tagged Ssrg_00986 (295 amino acids)
As for B2, the K0.5 in “purified protein [5]” worked out at 96 ± 11 µM. Also, the Km in the data set “purified protein [3]” and in the data set “purified protein [4]” was 45 µM in each case.
